B1: VGFB82 (antibody, human IgG1, lambda, L234A L235A, V domains shown)
VH: EVQLLESGGGLVQPGGSLRLSCEASGFDFSTYAMNWVRQAPGKGLEWVATINSEGTITSHAPAVKGRFTISRDNSKNTAYVQMNSLRAEDSAVYYCSSTTGTTHGMDVWGRGTTVTVSS
VL: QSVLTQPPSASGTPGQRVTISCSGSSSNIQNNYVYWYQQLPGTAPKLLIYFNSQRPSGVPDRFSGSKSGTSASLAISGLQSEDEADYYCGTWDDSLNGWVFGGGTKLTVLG
notes: human IgG1 (L234A/L235A/D265S)
B2: VGFB54 (antibody, human IgG1, lambda, L234A L235A, V domains shown)
VH: EVQLLESGGGSVQPGGSLRLSCTASGFNFEDYGMNWVRQAPGKGLDWVSSINRNGDISTYHVDSVKGRFTISRDNSKNTLYLQMNSLRAEDTAIYYCTKNHDYHGMDVWGQGTTVTVSS
VL: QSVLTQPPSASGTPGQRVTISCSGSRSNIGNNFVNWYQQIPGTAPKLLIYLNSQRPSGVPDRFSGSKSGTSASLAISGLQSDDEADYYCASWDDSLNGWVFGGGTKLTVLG
notes: human IgG1 (L234A/L235A/D265S), lambda, 2H:2L; from OmniChicken
B3: VGFB78 (antibody, human IgG1, lambda, L234A L235A, V domains shown)
VH: EVQLLESGGGLVQPGGSLRLSCAASSFTFYNYDMTWVRQAPGKGLEWVAGIGTSGTDMYYADSVKGRFTISRDNSKNTLYLQMNSLRAEDTAIYYCAKDYYYYGMDVWGLGTTVTVSS
VL: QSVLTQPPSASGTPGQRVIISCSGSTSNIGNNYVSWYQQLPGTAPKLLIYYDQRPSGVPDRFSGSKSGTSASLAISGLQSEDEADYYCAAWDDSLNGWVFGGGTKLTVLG
notes: as for B1
B4: VGFB71 (antibody, human IgG1, lambda, L234A L235A, V domains shown)
VH: EVQLLESGGGLVQPGGSLRLSCEASGFIFRDYNMNWVRQAPGKGLEWVSIITNDGSSTAYSDSVKGRFTISRDNSKNSLYLQMNSLRAEDTAIYYCVKVYYGMDDWGQGTTVTVSS
VL: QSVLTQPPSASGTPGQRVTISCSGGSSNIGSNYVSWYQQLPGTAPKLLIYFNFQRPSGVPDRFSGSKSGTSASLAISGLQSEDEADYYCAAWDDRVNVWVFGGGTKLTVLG
notes: as for B1

Legend:
[1] = target: T1, human VEGFR3, over-expressed on K562 cells (human, UniProt P35916 25-1363); assay: FACS cell binding (MFI) on K562 cells over-expressing human VEGFR3; expanded clone supernatant per paragraph 492, concentration not given
T1 construct: whole, on cells; also called huVEGFR3; hVEGFR3
Procedure, shortened: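 Binding was assessed by flow cytometry as mean fluorescence intensity, using culture supernatants of chicken-derived antibody clones expressed as scFv-Fc (human IgG1). The clones were produced by transient transfection and expanded to 6-well plates (2 mL). Receptor over-expressing cells were HEK cells for mouse VEGFR1 and human VEGFR2, and K562 cells for human VEGFR3.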

[2] = target: T2, human VEGFR2, over-expressed on HEK293 cells (human, UniProt P35968 20-1356); assay: flow cytometry, 10 nM antibody, HEK cells over-expressing human VEGFR2
T2 construct: whole, on cells; also called huVEGFR2; hVEGFR2
T2 sequence (P35968 20-1356): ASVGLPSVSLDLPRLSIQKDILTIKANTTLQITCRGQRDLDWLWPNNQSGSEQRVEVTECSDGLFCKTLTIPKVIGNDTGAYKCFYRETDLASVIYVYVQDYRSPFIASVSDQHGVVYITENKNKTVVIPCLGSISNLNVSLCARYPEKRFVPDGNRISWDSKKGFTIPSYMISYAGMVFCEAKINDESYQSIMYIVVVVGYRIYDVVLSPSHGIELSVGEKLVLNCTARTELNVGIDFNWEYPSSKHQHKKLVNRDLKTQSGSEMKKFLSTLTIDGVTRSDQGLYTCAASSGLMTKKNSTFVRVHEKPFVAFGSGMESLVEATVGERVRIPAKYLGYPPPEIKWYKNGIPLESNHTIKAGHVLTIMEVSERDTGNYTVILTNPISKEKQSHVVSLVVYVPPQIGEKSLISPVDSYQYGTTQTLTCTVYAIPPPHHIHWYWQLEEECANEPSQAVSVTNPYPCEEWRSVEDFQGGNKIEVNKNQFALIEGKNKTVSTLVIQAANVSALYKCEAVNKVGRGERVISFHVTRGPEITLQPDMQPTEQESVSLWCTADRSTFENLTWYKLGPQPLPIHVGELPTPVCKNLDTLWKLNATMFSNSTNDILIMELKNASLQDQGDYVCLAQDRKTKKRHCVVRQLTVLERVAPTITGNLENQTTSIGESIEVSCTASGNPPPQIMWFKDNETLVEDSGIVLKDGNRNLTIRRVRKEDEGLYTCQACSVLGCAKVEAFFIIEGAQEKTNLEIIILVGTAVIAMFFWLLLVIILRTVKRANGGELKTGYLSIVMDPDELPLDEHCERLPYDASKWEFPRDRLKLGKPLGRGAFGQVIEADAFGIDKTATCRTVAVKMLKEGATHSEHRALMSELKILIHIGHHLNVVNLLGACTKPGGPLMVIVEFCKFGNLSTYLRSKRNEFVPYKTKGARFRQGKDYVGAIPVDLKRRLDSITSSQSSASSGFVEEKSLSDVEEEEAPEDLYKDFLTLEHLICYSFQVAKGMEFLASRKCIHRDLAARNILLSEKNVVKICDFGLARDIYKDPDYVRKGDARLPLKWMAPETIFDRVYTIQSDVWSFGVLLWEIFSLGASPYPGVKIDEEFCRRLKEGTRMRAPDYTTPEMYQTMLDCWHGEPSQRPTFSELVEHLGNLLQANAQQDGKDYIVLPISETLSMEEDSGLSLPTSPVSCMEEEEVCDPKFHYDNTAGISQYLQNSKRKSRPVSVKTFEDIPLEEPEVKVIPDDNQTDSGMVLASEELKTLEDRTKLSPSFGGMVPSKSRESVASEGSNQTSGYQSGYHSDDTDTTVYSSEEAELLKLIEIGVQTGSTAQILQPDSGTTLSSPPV

VGFW1 = target: T3, VGFW1 (human, UniProt P17948 27-338, limits assumed); assay: HDX-MS
T3 construct: construct of the HDX-MS work; also called VEGFR1 (VGFW1)
T3 sequence (P17948 27-338 limits assumed): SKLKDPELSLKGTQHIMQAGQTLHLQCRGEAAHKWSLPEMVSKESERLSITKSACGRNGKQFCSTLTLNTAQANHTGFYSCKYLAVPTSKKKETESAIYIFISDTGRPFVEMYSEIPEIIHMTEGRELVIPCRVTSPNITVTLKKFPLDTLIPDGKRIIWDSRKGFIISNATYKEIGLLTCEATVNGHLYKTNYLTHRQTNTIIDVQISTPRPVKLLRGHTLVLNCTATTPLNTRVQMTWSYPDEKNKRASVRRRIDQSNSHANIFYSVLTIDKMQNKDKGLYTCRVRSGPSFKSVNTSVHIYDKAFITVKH
Procedure, shortened: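 Hydrogen-deuterium exchange mass spectrometry mapped antibody binding on a recombinant VEGFR1 antigen. The read-out is the change in free energy per segment upon antibody binding. Segments above 2 kcal/mol count as strong epitopes and segments at 1-2 kcal/mol as weak ones.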

His tagged cyno VEGFR1 = His tagged cyno VEGFR1 (cynomolgus monkey, UniProt A0A2K5VAF2 27-758); assay: MSD ECL competition on plate-bound His-tagged cyno VEGFR1; competitor biotin human PlGF (2 nM)
Procedure, shortened: (§1)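 Half-log antibody dilutions were pre-incubated for 30 minutes with VEGFR1 (human or mouse Fc fusion, or His-tagged cyno; 0.5 ug/ml) that had been captured for 1 hour at room temperature on blocked MSD 384 plates coated with Protein A/G or anti-His mAb. Biotinylated VEGFA (0.2 nM) or PlGF (2 nM) was then added and bound ligand was read with Sulfo-tagged streptavidin on an MSD SECTOR S 600 imager. IC50 and maximal percent inhibition were calculated from the electro-chemiluminescence readings.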

[3] = target: T4, human VEGFR1, full length, over-expressed on cells (human, UniProt P17948 27-1338); assay: flow cytometry, CHO-K1 cells stably expressing human VEGFR1
T4 construct: on CHO-K1 or HEK cells; also called hVEGFR1; CHOK1/ human VEGFR1
T4 sequence (P17948 27-1338 limits assumed): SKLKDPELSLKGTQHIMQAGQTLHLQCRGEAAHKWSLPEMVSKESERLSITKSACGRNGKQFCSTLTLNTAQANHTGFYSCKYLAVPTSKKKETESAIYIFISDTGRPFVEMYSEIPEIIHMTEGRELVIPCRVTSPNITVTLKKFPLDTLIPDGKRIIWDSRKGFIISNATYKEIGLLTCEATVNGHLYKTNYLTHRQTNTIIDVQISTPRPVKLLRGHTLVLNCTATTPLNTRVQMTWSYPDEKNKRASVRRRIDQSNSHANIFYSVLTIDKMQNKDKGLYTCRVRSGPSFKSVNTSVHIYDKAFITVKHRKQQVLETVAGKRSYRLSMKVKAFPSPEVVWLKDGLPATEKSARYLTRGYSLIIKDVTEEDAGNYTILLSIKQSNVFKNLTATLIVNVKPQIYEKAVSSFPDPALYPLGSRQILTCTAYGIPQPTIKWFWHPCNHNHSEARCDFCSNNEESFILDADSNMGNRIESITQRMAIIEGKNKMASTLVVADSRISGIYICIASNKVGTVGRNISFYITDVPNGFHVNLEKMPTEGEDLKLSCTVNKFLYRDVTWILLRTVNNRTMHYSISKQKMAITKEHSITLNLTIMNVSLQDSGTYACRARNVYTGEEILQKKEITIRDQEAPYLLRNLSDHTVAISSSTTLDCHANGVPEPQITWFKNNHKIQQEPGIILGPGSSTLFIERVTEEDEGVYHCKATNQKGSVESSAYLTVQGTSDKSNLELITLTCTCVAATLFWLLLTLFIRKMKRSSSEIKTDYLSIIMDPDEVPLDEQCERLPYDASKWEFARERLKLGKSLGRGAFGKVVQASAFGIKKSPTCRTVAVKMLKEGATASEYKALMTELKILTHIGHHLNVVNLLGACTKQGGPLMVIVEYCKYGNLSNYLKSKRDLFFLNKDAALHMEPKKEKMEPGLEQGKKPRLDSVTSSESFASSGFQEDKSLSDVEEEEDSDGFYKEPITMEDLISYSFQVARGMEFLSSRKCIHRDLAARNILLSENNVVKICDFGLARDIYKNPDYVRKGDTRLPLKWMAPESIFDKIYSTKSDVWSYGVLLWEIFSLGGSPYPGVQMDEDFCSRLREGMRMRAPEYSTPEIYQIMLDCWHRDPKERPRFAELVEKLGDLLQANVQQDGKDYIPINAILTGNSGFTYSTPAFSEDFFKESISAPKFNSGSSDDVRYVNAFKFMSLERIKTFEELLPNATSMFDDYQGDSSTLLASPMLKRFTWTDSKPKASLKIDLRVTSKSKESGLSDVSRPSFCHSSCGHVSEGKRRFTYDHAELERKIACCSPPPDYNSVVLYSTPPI
Experimental: Full dose-response curves for binding of anti-VEGFR1 antibodies to VEGFR1 on cells were also generated. Parental CHO-K1 cells and CHO-K1 cells stably expressing human VEGFR1 (CHO-K1\hVEGFR1) were cultured in aMEM+10% FBS and aMEM+10% FBS containing 10 μg/mL Puromycin, respectively. CHOK1\hVEGFR1 were stained with CSFE as described above and parental CHO-K1 cells were left unstained. Cells were washed, combined (˜0.5×10⁶ cells/mL), and plated at ˜40,000 cells per well (75 μL/well). Serially diluted antibody samples were then added to the cells and incubated for 1 hour at 37° C. Cells were washed twice with stain buffer and then stained with AF647-conjugated secondary antibody for 30 min at 4° C. Plated cells were washed twice followed by the addition of read buffer containing Sytox Blue (1:1000) and read on an iQue flow cytometer. Data was fit to obtain EC₅₀ values (Table 22).

[4] = target: T4, human VEGFR1, full length, …; assay: flow cytometry, CHOK1 cells over-expressing human VEGFR1; competitor biotinylated VEGF A (500 pM)
Experimental: Ligand blocking on cells was determined as follows: Cell Trace Violet CSFE (ThermoFisher Scientific) stained cells were plated at 15,000 cells per well (30 μL/well; CHO parental or CHO cells engineered to over-express human VEGFR1) in FACS staining buffer. An equivalent volume of serially diluted test antibody was applied to the cells and incubated for one hour at 4° C. Cells were washed twice with 200 μL/well of stain buffer followed by the addition of 100 μL/well of biotinylated VEGF A ligand (500 pM). The cells were incubated at 4° C. for another hour followed by the addition of 50 µL/well of AF647-conjugated streptavidin (3 nM). The plate was incubated at 4° C. for 30 min protected from light, washed twice with 200 μL/well of stain buffer, collected by centrifugation, resuspended in running buffer containing Sytox Blue live/dead stain and then read on an Intellicyt iQue Plus flow cytometer. Data was fit to obtain IC₅₀ values. Percent ligand blocking was calculated for each concentration of each test antibody and IC50 values were determined (Table 25).

[5] = target: T5, cynomolgus monkey VEGFR1, over-expressed on HEK293 cells (cynomolgus monkey); assay: flow cytometry, HEK cells over-expressing cyno VEGFR1; competitor biotinylated VEGF A (500 pM)
T5 construct: whole, on cells; also called HEK/ cyno VEGFR1; cynoVEGFR1

[6] = target: T6, Recombinant human VEGFR1-Fc (R&D Systems) (human, UniProt P17948 27-687, limits assumed); assay: MSD ECL competition on plate-bound human VEGFR1-Fc; competitor biotin human VEGFA165 (0.2 nM)
T6 construct: bought; not shown: Fc part of the bought fusion, not described
T6 sequence (P17948 27-687 limits assumed): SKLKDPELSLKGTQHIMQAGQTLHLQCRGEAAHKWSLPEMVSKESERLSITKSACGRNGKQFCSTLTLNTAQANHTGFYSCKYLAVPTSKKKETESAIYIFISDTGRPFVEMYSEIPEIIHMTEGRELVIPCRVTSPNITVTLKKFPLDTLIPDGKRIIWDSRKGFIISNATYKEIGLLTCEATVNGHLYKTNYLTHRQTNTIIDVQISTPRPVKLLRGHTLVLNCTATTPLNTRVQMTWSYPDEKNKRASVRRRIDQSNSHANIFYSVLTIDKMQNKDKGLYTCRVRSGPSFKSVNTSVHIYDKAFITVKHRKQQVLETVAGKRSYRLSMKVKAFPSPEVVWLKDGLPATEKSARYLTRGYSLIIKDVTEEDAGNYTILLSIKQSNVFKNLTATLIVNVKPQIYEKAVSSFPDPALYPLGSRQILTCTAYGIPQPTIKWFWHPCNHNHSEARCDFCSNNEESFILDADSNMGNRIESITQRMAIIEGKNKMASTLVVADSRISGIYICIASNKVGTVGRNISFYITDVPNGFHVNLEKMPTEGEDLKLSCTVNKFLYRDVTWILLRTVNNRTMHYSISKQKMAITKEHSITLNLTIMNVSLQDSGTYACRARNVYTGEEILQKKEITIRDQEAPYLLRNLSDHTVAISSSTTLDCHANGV
Procedure, shortened: as §1

| Binder | binding result [1] | Geomean over-expressing/Geomean parental (Fold Signal/Background) [2] | Free energy change upon binding (ΔΔG), VEGFR1 segment 141-147 (VGFW1) | Free energy change upon binding (ΔΔG), VEGFR1 segment 147-153 (VGFW1) | Free energy change upon binding (ΔΔG), VEGFR1 segment 172-177 (VGFW1) | Free energy change upon binding (ΔΔG), VEGFR1 segment 178-199 (VGFW1) | Free energy change upon binding (ΔΔG), VEGFR1 segment 200-200 (VGFW1) | Free energy change upon binding (ΔΔG), VEGFR1 segment 201-204 (VGFW1) | Free energy change upon binding (ΔΔG), VEGFR1 segment 211-215 (VGFW1) | Free energy change upon binding (ΔΔG), VEGFR1 segment 218-228 (VGFW1) | IC50 (His tagged cyno VEGFR1) | Max % Inh. (His tagged cyno VEGFR1) | EC50 [3] | IC50 [4] | IC50 [5] | IC50 [6] | Max % Inh. [6] |
| --- | --- | --- | --- | --- | --- | --- | --- | --- | --- | --- | --- | --- | --- | --- | --- | --- | --- |
| B1 | no binding | 1.34 fold | -0.6 kcal/mol | -0.1 kcal/mol | -0.6 kcal/mol | -1 kcal/mol | -0.5 kcal/mol | -3.3 kcal/mol | -0.1 kcal/mol | -0.3 kcal/mol | 91 pM | 100% | 136 pM | 198 pM | 231 pM | 152 pM | 99.9% |
| B2 | no binding | 1.52 fold | -0.2 kcal/mol | -0.4 kcal/mol | -2.6 kcal/mol | -0.3 kcal/mol | -1.4 kcal/mol | -3.6 kcal/mol | -0.1 kcal/mol | -0.7 kcal/mol | 78 pM | 100% | 101 pM | 72.7 pM | 87.6 pM | 141 pM | 99.9% |
| B3 | no binding | 1.75 fold | -0.3 kcal/mol | -0.6 kcal/mol | -2.7 kcal/mol | -1.1 kcal/mol | -2.9 kcal/mol | -3.6 kcal/mol | 0.1 kcal/mol | -0.2 kcal/mol | 177 pM | 100% | 473 pM | 683 pM | 815 pM | 252 pM | 99.9% |
| B4 | no binding | 1.27 fold | -0.3 kcal/mol | -1.2 kcal/mol | -4.2 kcal/mol | 0 kcal/mol | -2.8 kcal/mol | -2.8 kcal/mol | -0.1 kcal/mol | -0.3 kcal/mol | – | – | 110 pM | 79.5 pM | 95.7 pM | – | – |

From patent publication US20240425603A1 (Janssen / Centocor, published 2024)
